In publication PMC6586535 (Leukemia & lymphoma, 2018):

Molecular target: T1, aryl hydrocarbon receptor (human (endogenous in HL-60), UniProt P35869 11-848)
T1 sequence (looked up): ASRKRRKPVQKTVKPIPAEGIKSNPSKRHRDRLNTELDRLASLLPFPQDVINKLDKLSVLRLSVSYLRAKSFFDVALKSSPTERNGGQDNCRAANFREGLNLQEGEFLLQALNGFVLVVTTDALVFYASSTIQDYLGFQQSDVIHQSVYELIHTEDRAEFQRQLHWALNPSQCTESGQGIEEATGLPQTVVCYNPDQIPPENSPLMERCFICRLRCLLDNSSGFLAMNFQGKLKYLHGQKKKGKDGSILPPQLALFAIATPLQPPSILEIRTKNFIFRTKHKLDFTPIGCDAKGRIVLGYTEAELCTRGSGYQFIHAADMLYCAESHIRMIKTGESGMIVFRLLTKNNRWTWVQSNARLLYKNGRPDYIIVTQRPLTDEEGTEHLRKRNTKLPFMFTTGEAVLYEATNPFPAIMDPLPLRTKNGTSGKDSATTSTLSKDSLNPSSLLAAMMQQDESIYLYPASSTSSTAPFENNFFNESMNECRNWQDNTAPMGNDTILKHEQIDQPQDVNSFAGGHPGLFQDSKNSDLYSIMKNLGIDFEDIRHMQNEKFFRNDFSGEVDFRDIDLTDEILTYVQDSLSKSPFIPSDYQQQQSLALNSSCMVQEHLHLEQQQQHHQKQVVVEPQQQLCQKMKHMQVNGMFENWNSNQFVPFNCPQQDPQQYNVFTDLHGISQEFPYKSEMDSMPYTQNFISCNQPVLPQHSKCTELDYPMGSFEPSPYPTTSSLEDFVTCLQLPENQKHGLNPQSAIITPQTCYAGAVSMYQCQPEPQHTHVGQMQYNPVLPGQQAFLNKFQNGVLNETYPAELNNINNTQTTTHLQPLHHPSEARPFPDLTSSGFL
Test: FRET or BRET

B1: Cbl-b (natural protein, human (endogenous in HL-60), UniProt Q13191 1-982, looked up)
chain: MANSMNGRNPGGRGGNPRKGRILGIIDAIQDAVGPPKQAAADRRTVEKTWKLMDKVVRLCQNPKLQLKNSPPYILDILPDTYQHLRLILSKYDDNQKLAQLSENEYFKIYIDSLMKKSKRAIRLFKEGKERMYEEQSQDRRNLTKLSLIFSHMLAEIKAIFPNGQFQGDNFRITKADAAEFWRKFFGDKTIVPWKVFRQCLHEVHQISSGLEAMALKSTIDLTCNDYISVFEFDIFTRLFQPWGSILRNWNFLAVTHPGYMAFLTYDEVKARLQKYSTKPGSYIFRLSCTRLGQWAIGYVTGDGNILQTIPHNKPLFQALIDGSREGFYLYPDGRSYNPDLTGLCEPTPHDHIKVTQEQYELYCEMGSTFQLCKICAENDKDVKIEPCGHLMCTSCLTAWQESDGQGCPFCRCEIKGTEPIIVDPFDPRDEGSRCCSIIDPFGMPMLDLDDDDDREESLMMNRLANVRKCTDRQNSPVTSPGSSPLAQRRKPQPDPLQIPHLSLPPVPPRLDLIQKGIVRSPCGSPTGSPKSSPCMVRKQDKPLPAPPPPLRDPPPPPPERPPPIPPDNRLSRHIHHVESVPSRDPPMPLEAWCPRDVFGTNQLVGCRLLGEGSPKPGITASSNVNGRHSRVGSDPVLMRKHRRHDLPLEGAKVFSNGHLGSEEYDVPPRLSPPPPVTTLLPSIKCTGPLANSLSEKTRDPVEEDDDEYKIPSSHPVSLNSQPSHCHNVKPPVRSCDNGHCMLNGTHGPSSEKKSNIPDLSIYLKGDVFDSASDPVPLPPARPPTRDNPKHGSSLNRTPSDYDLLIPPLGEDAFDALPPSLPPPPPPARHSLIEHSKPPGSSSRPSSGQDLFLLPSDPFVDLASGQVPLPPARRLPGENVKTNRTSQDYDQLPSCSDGSQAPARPPKPRPRRTAPEIHHRKPHGPEAALENVDAKIAKLMGEGYAFEEVKRALEIAQNNVEVARSILREFAFPPPVSPRLNL
For B1, the “fold weaker FRET signal than the RARα/RXRα interaction” value was ~4 fold.
